Each block holds one binder with its values, some of them ahead of it.
Key:
[1] = molecular target: 3xFLAG-tagged WT human TRPA1 (human, UniProt O75762 1-1119); test: co-IP + SEC
SEC = molecular target: the molecule itself; test: SEC
FLAG-MBP-WT human TRPA1 = FLAG-MBP-WT human TRPA1 (human, UniProt O75762 1-1119); test: pull-down + co-IP

- stoichiometry N [1]: 4
B1: GFP-tagged WT human TRPA1 (natural protein, UniProt O75762 1-1119, looked up)
chain: MKRSLRKMWRPGEKKEPQGVVYEDVPDDTEDFKESLKVVFEGSAYGLQNFNKQKKLKRCDDMDTFFLHYAAAEGQIELMEKITRDSSLEVLHEMDDYGNTPLHCAVEKNQIESVKFLLSRGANPNLRNFNMMAPLHIAVQGMNNEVMKVLLEHRTIDVNLEGENGNTAVIIACTTNNSEALQILLKKGAKPCKSNKWGCFPIHQAAFSGSKECMEIILRFGEEHGYSRQLHINFMNNGKATPLHLAVQNGDLEMIKMCLDNGAQIDPVEKGRCTAIHFAATQGATEIVKLMISSYSGSVDIVNTTDGCHETMLHRASLFDHHELADYLISVGADINKIDSEGRSPLILATASASWNIVNLLLSKGAQVDIKDNFGRNFLHLTVQQPYGLKNLRPEFMQMQQIKELVMDEDNDGCTPLHYACRQGGPGSVNNLLGFNVSIHSKSKDKKSPLHFAASYGRINTCQRLLQDISDTRLLNEGDLHGMTPLHLAAKNGHDKVVQLLLKKGALFLSDHNGWTALHHASMGGYTQTMKVILDTNLKCTDRLDEDGNTALHFAAREGHAKAVALLLSHNADIVLNKQQASFLHLALHNKRKEVVLTIIRSKRWDECLKIFSHNSPGNKCPITEMIEYLPECMKVLLDFCMLHSTEDKSCRDYYIEYNFKYLQCPLEFTKKTPTQDVIYEPLTALNAMVQNNRIELLNHPVCKEYLLMKWLAYGFRAHMMNLGSYCLGLIPMTILVVNIKPGMAFNSTGIINETSDHSEILDTTNSYLIKTCMILVFLSSIFGYCKEAGQIFQQKRNYFMDISNVLEWIIYTTGIIFVLPLFVEIPAHLQWQCGAIAVYFYWMNFLLYLQRFENCGIFIVMLEVILKTLLRSTVVFIFLLLAFGLSFYILLNLQDPFSSPLLSIIQTFSMMLGDINYRESFLEPYLRNELAHPVLSFAQLVSFTIFVPIVLMNLLIGLAVGDIAEVQKHASLKRIAMQVELHTSLEKKLPLWFLRKVDQKSTIVYPNKPRSGGMLFHIFCFLFCTGEIRQEIPNADKSLEMEILKQKYRLKDLTFLLEKQHELIKLIIQKMEIISETEDDDSHCSFQDRFKKEQMEQRNSRWNTVLRAVKAKTHHLEP
- stoichiometry N (SEC): 4

- stoichiometry N (FLAG-MBP-WT human TRPA1): 1.3 R919* subunits per WT subunit
B2: Strep-MBP-R919* human TRPA1 (domain or fragment, UniProt O75762 1-918, looked up)
chain: MKRSLRKMWRPGEKKEPQGVVYEDVPDDTEDFKESLKVVFEGSAYGLQNFNKQKKLKRCDDMDTFFLHYAAAEGQIELMEKITRDSSLEVLHEMDDYGNTPLHCAVEKNQIESVKFLLSRGANPNLRNFNMMAPLHIAVQGMNNEVMKVLLEHRTIDVNLEGENGNTAVIIACTTNNSEALQILLKKGAKPCKSNKWGCFPIHQAAFSGSKECMEIILRFGEEHGYSRQLHINFMNNGKATPLHLAVQNGDLEMIKMCLDNGAQIDPVEKGRCTAIHFAATQGATEIVKLMISSYSGSVDIVNTTDGCHETMLHRASLFDHHELADYLISVGADINKIDSEGRSPLILATASASWNIVNLLLSKGAQVDIKDNFGRNFLHLTVQQPYGLKNLRPEFMQMQQIKELVMDEDNDGCTPLHYACRQGGPGSVNNLLGFNVSIHSKSKDKKSPLHFAASYGRINTCQRLLQDISDTRLLNEGDLHGMTPLHLAAKNGHDKVVQLLLKKGALFLSDHNGWTALHHASMGGYTQTMKVILDTNLKCTDRLDEDGNTALHFAAREGHAKAVALLLSHNADIVLNKQQASFLHLALHNKRKEVVLTIIRSKRWDECLKIFSHNSPGNKCPITEMIEYLPECMKVLLDFCMLHSTEDKSCRDYYIEYNFKYLQCPLEFTKKTPTQDVIYEPLTALNAMVQNNRIELLNHPVCKEYLLMKWLAYGFRAHMMNLGSYCLGLIPMTILVVNIKPGMAFNSTGIINETSDHSEILDTTNSYLIKTCMILVFLSSIFGYCKEAGQIFQQKRNYFMDISNVLEWIIYTTGIIFVLPLFVEIPAHLQWQCGAIAVYFYWMNFLLYLQRFENCGIFIVMLEVILKTLLRSTVVFIFLLLAFGLSFYILLNLQDPFSSPLLSIIQTFSMMLGDINY
